Results taken from US8722622B2, “FGF21 conjugates and anti-diabetic uses thereof” (COVX Technologies Ireland, Limited, priority 2010, dated 2014).
Positions count from the first letter of the chain named. Numbers in names are those of the source.

Columns and labels:
[1] = Intrinsic tryptophan fluorescence thermal unfolding; assay type: physicochemical
Text: Thermal stability of the two candidates was also investigated using intrinsic protein tryptophan fluorescence by measuring midpoint of transition (Tm-FL) of temperature-induced unfolding. This assay monitors changes in tertiary structure semi-quantitatively upon unfolding induced by high temperature.

[2] = Differential scanning calorimetry (DSC); assay type: physicochemical; details: temperature-induced unfolding
Method: Thermal stability of the two candidates was investigated using DSC by measuring midpoint of transition (Tm) of temperature-induced unfolding. The Tm value of the major unfolding transition for h38C2 was 73.5° C.

[3] = tested on: ob/ob mice; assay: Mouse efficacy in ob/ob mice (OGTT, body weight, liver, gene expression); assay type: in vivo; details: ob/ob mice; for mean glucose AUC % during OGTT: single dose 10 mg/ml as printed (FIG. 6B)
Method: The efficacy of FGF21 antibodies conjugates was evaluated in two murine obese insulin resistant models—ob/ob mice and high-fat diet-induced obese mice. For both models, male mice (6-8 weeks of age for ob/ob, 12-14 weeks of age for DIO with high-fat diet initiated at 6 weeks of age) were housed 2-4/cage and FGF21 antibody conjugates were administered by SC injection. Body weight was measured daily in the morning. Glucose tolerance was assessed by oral glucose tolerance test. Briefly, mice were fasted for 4-5 hrs in the morning of the day of testing. A basal blood sample was obtained and blood glucose levels were determined using a portable glucometer. Following basal sample, glucose was administered by oral gavage, and blood samples were drawn from 15 to 120 mins thereafter.
For […] expression, frozen visceral WAT samples collected from the in vivo efficacy studies were homogenized. Total RNA was extracted from the tissue homogenates, and Glut1 and GAPDH mRNA expression was measured using a Quantitect Probe RT-PCR kit and running a quantitative real time PCR reaction in a Taqman machine (Applied Biosystems). The effect of treatment was determined by a fold change in Glut1 mRNA levels normalized by the GAPDH mRNA levels from each sample.

[4] = tested on: Glut1 mRNA expression in differentiated 3T3-L1 adipocytes; assay: Glut1 Taqman assay; assay type: cell-based; details: differentiated 3T3-L1 adipocytes, 6 hrs; read-out: EC50 in Glut1 Taqman assay
Method: Differentiated 3T3-L1 adipocytes were used to measure the Glut1 mRNA expression by qPCR method. Overnight serum starved day 10-14 differentiated 3T3-L1 adipocytes were treated with compounds for 6 hrs. Total RNA was extracted from these cells, and Glut1 and GAPDH mRNA expression was measured using a Quantitect Probe RT-PCR kit and running a quantitative real time PCR reaction in a Taqman machine (Applied Biosystems®). The bioactivity of the compounds was determined by a fold change in Glut1 mRNA levels normalized by the GAPDH mRNA levels from each sample. EC50 values as measurements of the potency of the compounds were obtained from the dose response curves in the assay.
3T3-L1 adipocytes were seeded at day 8 in 24-well tissue culture plates (Falcon®, Cat#353047), and incubated in DMEM complete medium (10% FBS, 2 mM L-glutamine, 1% P/S) at 37° C., 5% CO2. […] The medium was aspirated, and then RNA extracted from the cells using the RNeasy mini Kit according to the manufacturer's instructions. RNA was measured at A260 nm using the Spectramax® Plus spectrophotometer.

[5] = design: species or system Swiss-Webster mice; details: mouse, in vivo, sc
Method: The PK of FGF21 antibody conjugates were examined in mice after IV or SC administration. […] Antibody conjugates concentrations in serum were determined using an ELISA which captured the FGF21 portion of the antibody conjugates through a monoclonal anti-hFGF21 antibody bound to a 96-well plate. FGF21 antibody conjugates bound to the plate were detected through an anti-hFc monoclonal antibody, and concentrations were determined using a standard curve of the PK dosing solution diluted into serum-containing assay buffer. SC bioavailability was calculated as the ratio of the area-under the curve (AUC) of the SC serum concentration profile divided by the AUC of the IV serum concentration profile.

[6] = assay type: physicochemical
Method: FGF21ΔH-D79C mutant protein was produced in E. coli and purified as described above. FGF21ΔH-D79C was expressed from 1 L of culture. A 150 mg inclusion body was obtained and 85 mg purified protein was obtained, representing a 60% yield. To test the stability of FGF21ΔH-D79C as well as FGF21ΔH (SEQ ID NO:2), freshly thawed samples were kept at 4° C. over seven days, and examined for their integrity by RP-HPLC, SEC_HPLC, Ellman assay and SDS-PAGE on day 0, 3 and 7. […] PBS (pH7.4) and 20 mM Tris-HCl 50 mM NaCl (pH7.5) made no significant difference of stability of FGF21ΔH-D79C.
It is possible that the solubility of FGF21ΔH-D79C may be reduced at pH6.0. The stability of FGF21ΔH-D79C was examined upon multiple freeze/thaw cycles. The proteins were repeated to freeze (−80 C) and thaw (4° C.) 9 times.

[7] = tested on: Differentiated 3T3-L1 adipocytes; assay: Glucose uptake assay; assay type: cell-based
Method: Differentiated 3T3-L1 adipocytes were treated with compounds in the absence of serum for 24 hrs. Cells were then incubated with ^14C-2-deoxyglucose for 1 hr and glucose uptake into the cells was quantitated in Wallac 1450 MicroBeta (Trilux) instrument. Glucose uptake was expressed in counts per min (CPM). EC50 values as measurements of the potency of the compounds were obtained from the dose response curves in the assay.

With “h38C2: humanized aldolase catalytic antibody h38C2 IgG1, SEQ ID NOS:25 and 26” the “Tm-FL of the major unfolding transition” value [1] was “approximately 74.1 °C” and the “Tm of the major unfolding transition (DSC)” value [2] was 73.5 °C.

B1: Ab-L1-FGF21ΔH-H125C: FGF21ΔH-H125C combined with L1 at H125C and conjugated with h38C2 (conjugate, listed as Homo sapiens)
chain: PIPDSSPLLQFGGQVRQRYLYTDDAQQTEAHLEIREDGTVGGAADQSPESLLQLKALKPGVIQILGVKTSRFLCQRPDGALYGSLHFDPEACSFRELLLEDGYNVYQSEAHGLPLHLPGNKSPHRDPCPRGPARFLPLPGLPPALPEPPGILAPQPPDVGSSDPLSMVGPSQGRSPSYAS
modifications: conjugated via L1 linker to h38C2 antibody
With B1 the “Tm-FL of the major unfolding transition” value [1] was about 79.7 °C, the “Tm of the major unfolding transition (DSC)” value [2] was 79 °C and the “body weight gain” value [3] was “reduce body weight gain”. For the same molecule, the “glucose tolerance” value [3] was “improve glucose tolerance”, the “Mean Glucose AUC (% of vehicle control) during OGTT” value ([3]; single SC dose 1 mg/kg (FIGS. 4A, 4B)) was 87 % of vehicle control and the “Mean Glucose AUC (% of vehicle control) during OGTT” value ([3]; single SC dose 3 mg/kg (FIGS. 4A, 4B)) was 66 % of vehicle control. The “Cumulative body weight change, mean body weight” value ([3]; single dose 10 mg/kg (FIG. 6A)) was 0.8 g, the “mean glucose AUC % during OGTT” value [3] was 51% and the EC50 [4] was 3.2 nM. The SC bioavailability [5] was 67%.

B2: FGF21ΔH-D79C: FGF21 cysteine mutant, SEQ ID NO:13 (protein, listed as Homo sapiens)
chain: B1 chain with D78C, C128A
For B2, the “stability upon freeze/thaw cycles” value [6] was “Neither sample showed any difference”, the “fraction oxidized at pH 6.0” value ([6]; 4° C., three-day incubation) was “more than half” and the “stability at neutral pH 7.4” value ([6]; pH 7.4) was “stable”. The “Cumulative body weight change, mean body weight” value ([3]; single dose 2 mg/kg (FIG. 6A)) was 2.1 g, the “mean glucose AUC % during OGTT” value [3] was 54% and the EC50 [4] was 2.1 nM.

B3: FGF21ΔH-K56-K59R-K69R-K122R: FGF21 lysine mutant, SEQ ID NO:18 (protein, listed as Homo sapiens)
chain: B1 chain with K58R, K68R, K121R, C128A, L145P, P146L
With B3 the EC50 ([7]; 3T3-L1 adipocytes, 24 hrs) was 5.5 nM and the EC50 [4] was 0.9 nM.

B4: FGF21ΔH-K56R-K59-K69R-K122R: FGF21 lysine mutant, SEQ ID NO:19 (protein, listed as Homo sapiens)
chain: B1 chain with K55R, K68R, K121R, C128A, L145P, P146L
In the case of B4, the EC50 ([7]; 3T3-L1 adipocytes, 24 hrs) is reported as 0.9 nM and the EC50 [4] is reported as 0.6 nM.

B5: FGF21ΔH-K56R-K59R-K69-K122R: FGF21 lysine mutant, SEQ ID NO:20 (protein, listed as Homo sapiens)
chain: B1 chain with K55R, K58R, K121R, C128A, L145P, P146L
In the case of B5, the EC50 ([7]; 3T3-L1 adipocytes, 24 hrs) is reported as 5.2 nM and the EC50 [4] is reported as 1.3 nM.

B6: FGF21ΔH-K56-K59R-K69R-K122: FGF21 lysine mutant, SEQ ID NO:21 (protein, listed as Homo sapiens)
chain: B1 chain with K55R, K58R, K68R, C128A, L145P, P146L
Molecule B6 has an EC50 ([7]; 3T3-L1 adipocytes, 24 hrs) of 1.7 nM and an EC50 [4] of 2.6 nM.

B7: FGF21ΔH-L86C: FGF21 cysteine mutant, SEQ ID NO:14 (protein, listed as Homo sapiens)
chain: B1 chain with L85C, C128A, L145P, P146L
B7 showed an EC50 ([7]; unconjugated protein, n in brackets) of 62 nM.
